The target in experiment [1] is T1, Taq DNA polymerase (Thermus aquaticus, UniProt P19821 1-832).
T1 construct: also called Taq enzyme; Taq DNA enzyme
In words: ELISA on coated Taq, antibody 12.35 ng/ml. The method, then: (§1) The antibody activity was detected after mutation. Taq DNA enzyme was diluted with coating solution to the specified concentration, 100 μL per well overnight at 4° C.; which was washed twice with washing solution and patted dry on the next day; with addition of blocking solution (20% BSA+80% PBS), 120 μL per well at 37° C. for 1 h and patted dry; added the diluted Taq monoclonal antibodies, 100 μL/well at 37° C. for 30 min (partial supernatant for 1 h); washed 5 times with washing solution and patted dry; added goat anti-mouse IgG-HRP at 100 μL per well at 37° C. for 30 min; washed 5 times with washing solution and patted dry; added color developing solution A (50 μL/well), added color developing solution B (50 μL/well) for 10 min; added stop solution, 50 μL/well; followed by reading the OD value at 450 nm (reference 630 nm) on the microplate reader.
(ELISA stands for enzyme-linked immunosorbent assay.)

Experiment [2] has as its target T1, Taq DNA polymerase. In words: ELISA on coated Taq, antibody 0 ng/ml (blank). As for the experimental part: as §1
Experiment [3] deals with T1, Taq DNA polymerase. In words: AMC sensor, antibody immobilised.
Experiment [4] concerns the target T1, Taq DNA polymerase. In words: AMC sensor, antibody immobilised. The source holds these as a separate data set.
Experiment [5] deals with T1, Taq DNA polymerase. As to the kind of experiment: ELISA on coated Taq, antibody 1.37 ng/ml. As for the experimental part: as §1
The target of experiment [6] is T1, Taq DNA polymerase. In words: ELISA on coated Taq, antibody 37.04 ng/ml. As for the experimental part:
as §1

In experiment [7] the target is T1, Taq DNA polymerase. In words: ELISA on coated Taq, antibody 4.12 ng/ml. The method, then: as §1
In experiment [8] the target is T1, Taq DNA polymerase. As to the kind of experiment: ELISA on coated Taq, antibody 0.46 ng/ml. The method, then: as §1
Experiment [9] concerns the target T1, Taq DNA polymerase. In words: AMC sensor, antibody immobilised. The source holds these as a separate data set.

The term Kd denotes the constant that tells how readily two partners part at equilibrium. A higher Kd goes with a looser complex. As usually defined, the koff is the first-order rate constant of dissociation. Broadly, the kon is the second-order rate constant of association. The low end stands for slow association, the high end for fast association.

Where a chain is given by its changes, count along the chain named. Where two headings read alike, the source gives them in different places.

T1 sequence (P19821 whole entry): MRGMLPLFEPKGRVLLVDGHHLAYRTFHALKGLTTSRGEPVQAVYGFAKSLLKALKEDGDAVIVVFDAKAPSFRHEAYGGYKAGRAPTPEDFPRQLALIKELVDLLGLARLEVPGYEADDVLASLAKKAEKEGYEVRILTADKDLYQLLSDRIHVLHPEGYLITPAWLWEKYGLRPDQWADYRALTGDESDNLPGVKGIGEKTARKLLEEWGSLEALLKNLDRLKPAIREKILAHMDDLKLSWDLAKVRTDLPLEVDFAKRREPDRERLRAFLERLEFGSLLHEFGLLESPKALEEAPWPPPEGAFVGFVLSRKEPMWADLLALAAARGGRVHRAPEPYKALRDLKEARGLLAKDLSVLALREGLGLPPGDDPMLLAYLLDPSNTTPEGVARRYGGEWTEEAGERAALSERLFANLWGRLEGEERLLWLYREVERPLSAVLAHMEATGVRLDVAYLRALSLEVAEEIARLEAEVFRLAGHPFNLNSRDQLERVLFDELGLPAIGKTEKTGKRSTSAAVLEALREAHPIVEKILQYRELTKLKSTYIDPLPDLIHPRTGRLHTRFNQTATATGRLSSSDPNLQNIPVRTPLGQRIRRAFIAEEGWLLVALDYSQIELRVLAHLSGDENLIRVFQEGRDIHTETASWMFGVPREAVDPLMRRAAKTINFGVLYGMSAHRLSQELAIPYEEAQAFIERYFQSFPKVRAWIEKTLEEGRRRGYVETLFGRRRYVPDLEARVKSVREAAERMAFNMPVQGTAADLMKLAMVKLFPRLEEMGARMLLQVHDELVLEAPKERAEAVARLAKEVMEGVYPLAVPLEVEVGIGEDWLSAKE

B1: Anti-Taq 2C7 recombinant antibody (WT) (antibody, mouse IgG1, kappa, V domains shown)
VH: QVQLQQPGAELVKPGASVRLSCQTSVDTFSTYYLYWVKQRPGEGLEWIGGVNPTSNPVFDEKFKSKATLTVDTSSSTAYMQLSSLTSVDSAVYYCTRSILRRGYYPDYWGQGTALTVSS
VL: DIQMTQTTSSLSASLGDRVTISCRGSQDIQNYVNWYQQKPDGTIKLLIYFTSRLQSGIPSRFSGSGSGTDYSLTIANLEQEDIATYFCQQDDTIPVTWGAGTKVELKR
notes: Mouse antibody expressed in CHO cells; also called WT antibody; antibody of sample 1
For B1, the “OD 450 nm” value with Taq DNA polymerase [1] amounted to 2.1 OD; with Taq DNA polymerase [2] it was 0.035 OD; with Taq DNA polymerase [5], 0.798 OD; in the experiment with Taq DNA polymerase [6], 2.3 OD; with Taq DNA polymerase [7], 1.58 OD; with Taq DNA polymerase [8] it was 0.399 OD. Besides, the Kd in the experiment with Taq DNA polymerase [3] and with Taq DNA polymerase [4] was 2.46 nM each time. The koff with Taq DNA polymerase [3] and in the experiment with Taq DNA polymerase [4] was 0.000145 s⁻¹ in each case. The kon with Taq DNA polymerase [3] and with Taq DNA polymerase [4] was 59000 M⁻¹ s⁻¹ in each case.

B2: Mutation 2 (antibody, V domains shown)
VH: B1 VH with L34I, D60N
VL: B1 VL with W98F
In the case of B2, the “OD 450 nm” value with Taq DNA polymerase [1] turned out to be 1.84 OD; with Taq DNA polymerase [2], 0.05 OD; with Taq DNA polymerase [5] it was 0.514 OD; with Taq DNA polymerase [6], 2.05 OD; in the experiment with Taq DNA polymerase [7], 1 OD; with Taq DNA polymerase [8], 0.059 OD. For the same molecule, the affinity with Taq DNA polymerase [3], expressed as Kd, was 0.99 nM. In the experiment with Taq DNA polymerase [3], the koff worked out at 5.87e-05 s⁻¹. In the experiment with Taq DNA polymerase [3], this molecule displayed a kon of 59200 M⁻¹ s⁻¹.

B3: Mutation 1 (antibody, V domains shown)
VH: B1 VH with L34I, D60N, P106F
VL: B1 VL with G25A, F50Y, W98F
notes: also called mutation 1 antibody
B3: the “OD 450 nm” value in the experiment with Taq DNA polymerase [1] was determined as 2.14 OD; with Taq DNA polymerase [2] it was 0.047 OD; with Taq DNA polymerase [5], 0.887 OD; with Taq DNA polymerase [6], 2.38 OD; with Taq DNA polymerase [7], 1.7 OD; with Taq DNA polymerase [8], 0.442 OD. For the same molecule, the Kd with Taq DNA polymerase [3] and with Taq DNA polymerase [9] was 0.384 nM throughout. Also, the koff with Taq DNA polymerase [3] and with Taq DNA polymerase [9] was 3.78e-05 s⁻¹ in each case. Moreover, the kon with Taq DNA polymerase [3] and in the experiment with Taq DNA polymerase [9] was 98300 M⁻¹ s⁻¹ each time.

B4: WT 1-9 (antibody, V domains shown)
VH: QVQLQQPGAELVKPGASVRLSCQTSVETFTTYYLYWVKQRPGEGLEWIGGVNPTSGGPVFDEKFKSKATLTVDTSSSTAYMQLSSLTSVDSAVYYCTRSILRRGYYPDYWGQGTALTVSS
VL: B1 VL with Q30N, V33L
notes: WT background; CDRs built
Turning to B4, in the experiment with Taq DNA polymerase [4], the dissociation constant (Kd) was found to be 8.57 nM, the koff is 0.000433 s⁻¹ and the kon was 50500 M⁻¹ s⁻¹.

B5: Mutation 4 (antibody)
heavy: QVQLQQPGAELVKPGASVRLSCQTSVDTFSTYYWYWVKQRPGEGLEWIGGVNPTSNPVFKEKFKSKATLTVDTSSSTAYMQLSSLTSVDSAVYYCTRSILRRGYYEDYWGQGTALTVSSAKTTPPSVYPLAPGSAAQTNSMVTLGCLVKGYFPEPVTVTWNSGSLSSGVHTFPAVLQSDLYTLSSSVTVPSSTWPSETVTCNVAHPASSTKVDKKIVPRDCGCKPCICTVPEVSSVFIFPPKPKDVLTITLTPKVTCVVVDISKDDPEVQFSWFVDDVEVHTAQTQPREEQFNSTFRSVSELPIMHQDWLNGKEFKCRVNSAAFPAPIEKTISKTKGRPKAPQVYTIPPPKEQMAKDKVSLTCMITDFFPEDITVEWQWNGQPAENYKNTQPIMDTDGSYFVYSKLNVQKSNWEAGNTFTCSVLHEGLHNHHTEKSLSHSPGK
light: DIQMTQTTSSLSASLGDRVTISCRLSQDIQNYVNWYQQKPDGTIKLLIYSTSRLQSGIPSRFSGSGSGTDYSLTIANLEQEDIATYFCQQDDTIPVTEGAGTKVELKRADAAPTVSIFPPSSEQLTSGGASVVCFLNNFYPKDINVKWKIDGSERQNGVLNSWTDQDSKDSTYSMSSTLTLTKDEYERHNSYTCEATHKTSTSPIVKSFNRNEC
On to B5, for which the “OD 450 nm” value with Taq DNA polymerase [1] is 0.679 OD; with Taq DNA polymerase [5], 0.057 OD; with Taq DNA polymerase [6] it was 1.38 OD; in the experiment with Taq DNA polymerase [7], 0.354 OD.

B6: Mutation 5 (antibody)
heavy: B5 heavy with W34S, K60Y, E106K
light: B5 light with L25I, S50P, E98R
Regarding B6, the “OD 450 nm” value in the experiment with Taq DNA polymerase [1] came out at 0.701 OD; with Taq DNA polymerase [5], 0.054 OD; with Taq DNA polymerase [6] it was 1.41 OD; with Taq DNA polymerase [7] it was 0.362 OD.

B7: Mutation 3 (antibody)
heavy: B5 heavy with W34A, K60D, E106Q
light: B5 light with L25G, S50Y, E98Y
As for B7, the “OD 450 nm” value with Taq DNA polymerase [1] came to 0.874 OD; with Taq DNA polymerase [5], 0.067 OD; in the experiment with Taq DNA polymerase [6], 1.78 OD; with Taq DNA polymerase [7], 0.45 OD. For the same molecule, binding in the experiment with Taq DNA polymerase [3] was characterised by a dissociation constant (Kd) of 20.7 nM. In the experiment with Taq DNA polymerase [3], the koff amounted to 0.00135 s⁻¹. The molecule also registered a kon with Taq DNA polymerase [3] of 65500 M⁻¹ s⁻¹.

Source of the values: US20210403601A1 (FAPON BIOTECH, published 2021).
